Experiment [1] deals with T1, FcRn-p3 fusion protein (human, UniProt P55899 24-297; P61769 21-119).
T1 construct: baculovirus expressed; coated on ELISA wells; not shown: amino terminal part of bacteriophage p3 protein and CVDE protein
Nature of the experiment: phage ELISA pH6. For orientation: An ELISA detects its analyte on a solid surface through an enzyme-linked reagent.

Experiment [2] addresses T1, FcRn-p3 fusion protein. Nature of the experiment: phage ELISA pH6 (est.).

We go through 20 molecules from patent USRE46585 (LABORATOIRE FRANCAIS DU FRACTIONNEMENT ET DES …, dated 2017).

T1 sequence (P55899 24-297, chain 1 of 2): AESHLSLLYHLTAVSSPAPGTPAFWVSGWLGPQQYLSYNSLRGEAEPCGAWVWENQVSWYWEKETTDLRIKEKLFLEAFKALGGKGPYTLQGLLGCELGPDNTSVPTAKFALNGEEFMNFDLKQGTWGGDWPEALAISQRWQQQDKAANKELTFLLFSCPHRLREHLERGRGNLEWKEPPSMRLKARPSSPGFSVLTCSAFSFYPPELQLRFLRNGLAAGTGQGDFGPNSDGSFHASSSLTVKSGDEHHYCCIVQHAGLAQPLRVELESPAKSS
T1 sequence (P61769 21-119, chain 2 of 2): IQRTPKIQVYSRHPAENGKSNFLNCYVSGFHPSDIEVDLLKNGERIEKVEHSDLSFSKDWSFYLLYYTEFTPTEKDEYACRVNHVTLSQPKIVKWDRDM

B1: C3A_01 (other)
chain: CPPCPAPELLGGPSVFLFPPKPKDTLMISRTPEVTCVVVDVSHEDPEVKFNWYVDGVEVHNAKTKPREEQYNSTYRVVSVLTVLHQDWLDGKEYKCKVSNKALPVPIEKTISKAKGQPREPQVYTLPPSRDELTKNQVSLTCLVKGFYPSDIAVEWESNGQPENNYKTTPPVLDSDGSFFLYSKLTVDKSRWQQGNVFSCSVMHEALHYHYTQKSLSLSPGK
notes: EU numbering
As for B1, the Ratio/Fc-H in experiment [1] turned out to be 2.5 fold. In experiment [2], the Ratio/FWT stood at 8 fold.

B2: C4A_18 (other)
chain: CPPCPAPELLGGPSVFLFPPKPKDTLMISRTPEVTCVVVDVSHEDPEVKFNWYVDGVEVHNAKTKPREEQYNSTYRVVSVLTVLHQDWLDGKEYKCKVSNKALPVPIEKTISKAKGQPREPQVYTLPPSRDELTKNQVSLTCLVKGFYPSDIVVEWESNGQPENNYKTTPPVLDSDGSFFLYSKLTVDKSRWQQGNVFSCSVMHEALHYHYTQKSLSLSPGK
notes: EU numbering
Consider B2, for which, in experiment [1], the Ratio/Fc-H amounted to 2.5 fold. Moreover, the Ratio/FWT in experiment [2] worked out at 8.1 fold.

B3: C3A_39 (other)
chain: CPPCPVPELLGGPSVFLFPPKPKDTLMISRTPEVTCVVVDVSHEDPEVKFNWYVDGVEVHNAKTKPREEQYNSTYRVVSVLTVLHQDWLNGKEYKCKVSNKALPAPIEKTISKAKGEPREPQVYTLPPSRDELTKNQVSLTCLVKGFYPSDIAVEWESNGQPENNYKTTPPVLDSDGSFFLYSKLTVDKSRWQQGNVFSCSVMHEALHYHYTQKSLSLSPGK
notes: EU numbering
On to B3, for which the Ratio/Fc-H in experiment [1] was 1.8 fold. Besides, in experiment [2], the Ratio/FWT came to 5.6 fold.

B4: C3A_42 (other)
chain: CPPCPAPELLGGPSVFLFPPKPKDTLMISRTPEVTCVVVDVSHEDPEVKFNWYVDGVEVHNAKTKPREEQYNSTYRVVSVLTVLHQDWLDGKEYKCKVSNKALPVPIEKTISKAKGQPREPQVYTLPPSRDELTKNQVSLTCLVKGFYPSDIAVEWESNGQPEKNYKTTPPMLDSDGSFFLYSKLTVDKSRWQQGNVFSCSVMHEALHYHYTQKSLSLSPGK
notes: EU numbering
As to B4, in experiment [1], the Ratio/Fc-H came to 3.7 fold. Besides, in experiment [2], the Ratio/FWT amounted to 12 fold.

B5: C4A_01 (other)
chain: CPPCPAPELLGGPSVFLFPPKPKDTLMISRTPEVTCVVVDVSHEDPEVKFNWYVDGVEVHNAKTKPREEQYNSTYRVVSVLTVLHQDWLDGKEYKCKVSNKALPAPIEKTISKAKGQPREPQVYTLPPSRDELTKNRVSLTCLVKGFYPSDIAVEWESNGQPEKNYKTTPPVLDSDGSFFLYSKLTVDKSRWQQGNVFSCSVMHEALHYHYTQKSLSLSPGK
notes: EU numbering
Take B5: the Ratio/Fc-H in experiment [1] was determined as 2.4 fold. In experiment [2], the Ratio/FWT was 7.5 fold.

B6: C4A_28 (other)
chain: CPPCPAPELLGGPSVFLFPPKPKDTLMISRTPEVTCVVEDVSHEDPEVKFNWYVDGVEVHNAKTKPREEQYNSTYRVVSVLTVLHQDWLNGKEYKCKVSNKALPAPIEKTISKAKGQPREPQVYTLPPSRDELTKNQVSLTCLVKGFYPSDIVVEWESNGQPENNYKTTPPVLDSDGSFFLYSKLTVDKSRWQQGNVFSCSVMHEALHYHYTQKSLSLSPGK
notes: EU numbering
As to B6, in experiment [1], the Ratio/Fc-H was determined as 3.4 fold. Further, the Ratio/FWT in experiment [2] turned out to be 10.8 fold.

B7: C4A_29 (other)
chain: CPPCPAPELLGGPSVFLFPPKPKDTLMISRTPEVTCVVVDVSHEDPEVKFNWYVDGVEVHNAKTKPREEQYNSTYRVVSVLPVLHQDWLDGKEYKCKVSNKALPAPIEKTISKAKGQPREPQVYTLPPSRDELTKSRVSLTCLVKGFYPSDIAVEWESNGQPENNYKTTPPVLDSDGSFFLYSKLTVDKSRWQQGNVFSCSVMHEALHYHYTQKSLSLSPGK
notes: EU numbering
On to B7, for which the Ratio/Fc-H in experiment [1] was found to be 3.8 fold. Further, the Ratio/FWT in experiment [2] amounted to 12 fold.

B8: C3A_31 (other)
chain: CPPCPAPELLGGPSVFLFPPKPKDTLMISRTPEVTCVVVDVSHEDPEVKFNWYVDGVEVHNAKTKPREEQYNSTYRVVSVLTVLHQDWLDGKEYKCKVSNKALPVPIEKTISKAKGQPREPQVYTLPPSRDELTKNQVSLTCLVKGFYPSDIAVEWESNGQPEKNYKTTPPVLDSGGSFFLYSKLTVDKSRWQQGNVFSCSVMHEALHYHYTQKSLSLSPGK
notes: EU numbering
For B8, in experiment [1], the Ratio/Fc-H stood at 2.2 fold. For the same molecule, in experiment [2], the Ratio/FWT worked out at 6.9 fold.

B9: C3A_15 (other)
chain: CPPCPAPELLGGPSVFLFPPKPKDTLMISRTPEVTCVVEDVSHEDPEVKFNWYVDGVEVHNAKTKPREEQYNSTYRVVSVLAVLHQDWLNGKEYKCKVSNKALPAPIEKTISKAKGQPREPQVYTLPPSRDELTKNQVSLTCLVKGFYPSDIVVEWESNGQPENNYKTTPPVLDSDGSFFLYSKLTVDKSRWQQGNVFSCSVMHEALHNHYTQKSLSLSPGK
notes: EU numbering
As to B9, the Ratio/Fc-H in experiment [1] turned out to be 1.9 fold. Further, the Ratio/FWT in experiment [2] was 6 fold.

B10: C4A_27 (other)
chain: CPPCPAPELLGGPSVFLFPPKPKDTLMISRTPEVTCVVADVSHEDPEVKFNWYVDGVEVHNAKTKPREEQYNSAYRVVSVLTVLHQDWLNGKEYKCKVSNKALPAPIEKTISKAKGQPREPQVYTLPPSRDELTKNQVSLTCLVKGFYPSDIVVEWGSNGQPENNYKTTPPVLDSDGSFFLYSKLTVDKSRWQQGNVFSCSVMHEALHYHYTQKSLSLSPGK
notes: EU numbering
B10: the Ratio/Fc-H in experiment [1] is 2.7 fold. Besides, the Ratio/FWT in experiment [2] was found to be 8.7 fold.

B11: C3A_08 (other)
chain: CPPCPAPELLGGPSVFLFPPKPKDTLMISRTPEVTCVVEDVSHEDPEVKFNWYVDGVEVHNAKTKPREEQYNSTYRVVSVLTVLHQDWLNGKEYKCKVSNKALPAPIEKTISKAKGQPREPQVYTLSPSRDELTKNQVSLTCLVKGFYPSDIVVEWESNGQPENNYKTTPPVLDSDGSFFLYSKLTVDKSRWQQGNVFSCSVMHEALHSHYTQKSLSLSPGK
notes: EU numbering
For B11, the Ratio/Fc-H in experiment [1] came out at 3 fold. In experiment [2], the Ratio/FWT amounted to 9.7 fold.

B12: C4A_24 (other)
chain: CPPCPAPELLGGPSVFLFPPKPKDTLMISRTPEVTCVVVDVSHEDPEVKFNWYVDGVEVHNAKTKPREEQYNSTYRVVSVLTVPHQDWLDGKEYKCKVSNKALPVPIEKTISKAKGQPREPQVYTLPPSRDELTKNQVSLTCLVKGFYPSDIAVEWESNGQPENNYKTTPPVLDSDGSFFLYSKLTVDKSRWQQGNVFSCSVMHEALHYHYTQKSLSLSPGK
notes: EU numbering
Regarding B12, the Ratio/Fc-H in experiment [1] came to 2.3 fold. The Ratio/FWT in experiment [2] was determined as 7.5 fold.

B13: C4A_32 (other)
chain: CPPCPAPELLGGPSVFLFPPKPKDTLMISRTPEVTCVVEDVSHEDPEVKFNWYVDGVEVHNAKTKPREEQYNSTYRVVSVLTVLHQDWLDGKEYKCKVSNKALPAPIEKTISKAKGQPREPQVYTLPPSRDELTKNQVSLTCLVKGFYPSDIVVEWESNGQPENNYKTTPPVLDSDGSFFLYSKLTVDKSRWQQGNVFSCSVMHEALHNHYTQKSLSLSPGK
notes: EU numbering
With B13, in experiment [1], the Ratio/Fc-H was determined as 1.7 fold. Moreover, the Ratio/FWT in experiment [2] is 5.4 fold.

B14: C3A_07 (other)
chain: CPPCPAPELLGGPSVFLFPPKPKDTLMISRTPEVTCVVVDVSHEDPEVKFNWYVDGVEVHNAKTKPREEQYNSTYRVVSVLPVLHQDWLNGKEYKCKVSNKALPTPIEKTISKAKGQPREPQVYTLPPSRDELTKNQVSLTCLVKGFYPSDIVVEWESNGQPENNYKTTPPVLDSDGSFFLYSKLTVDKSRWQQGNVFSCSVMHEALHNHYTQKSLSLSPGK
notes: EU numbering
Turning to B14, in experiment [1], the Ratio/Fc-H is 1.3 fold. Besides, in experiment [2], the Ratio/FWT amounted to 4.2 fold.

B15: C4A_06 (other)
chain: CPPCTAPELLGGPSVFLFPPKPKDTLMISRTPEVTCVVVDVSHEDPEVKFNWYVDGVEVHNAKTKPREEQYNSTYRVVSVLTVLHQDWLDGKEYKCKVSNKALPVPIEKTISKAKGQPREPQVYTLPPSRDELTKNQVSLTCLVKGFYPSDIAVEWESNGQPENNYKTTPPVLDSDGSFFLYSKLTVDKSRWQQGNVFSCSVMHEALHYHYTQKSLSLSPGK
notes: EU numbering
Consider B15, for which the Ratio/Fc-H in experiment [1] worked out at 3.6 fold. The Ratio/FWT in experiment [2] is 11.4 fold.

B16: C4A_25 (other)
chain: CPPCPAPELLGGPSVFLFPPKPKDTLMISRTPEVTCVVVDVSHEDPEVKFNWYVDGVEVHNAKTKPREEQYNSTYRVVSVLTVLHQDWLDGKEYKCKVSNKALPVPIEKTISKAKGQPREPQVYTLPPSRDELTKNQVSLTCLVKGFYPSDIAVEWESNGQPENNYKTTPPMLDSDGSFFLYSKLTVDKSRWQQGNVFSCSVMHEALHYHYTQKSLSLSPGK
notes: EU numbering
Turning to B16, the Ratio/Fc-H in experiment [1] is 2.8 fold. The Ratio/FWT in experiment [2] amounted to 8.9 fold.

B17: C3A_43 (other)
chain: CPPCPAPELLGGPSVFLFPPKPKDTLMISRTPEVTCVVVDVSHEDPEVKFNWYVDGVEVHNAKTKPREEQYNSTYRVVSVLTVLHQDWLDGKEYKCKVSNKALPAPIEKTISKAKGQPREPQVYTLPPSRDELTKNQVSLTCLVKGFYPSDIAVEWESNGQPENNYKTTPPVLDSDGSFFLYSKLTVDKSGWQQGNVFSCSVMHEALHYHYTQKSLSLSPGK
notes: EU numbering
With B17, the Ratio/Fc-H in experiment [1] stood at 2.5 fold. Moreover, in experiment [2], the Ratio/FWT was found to be 8.1 fold.

B18: C4A_15 (other)
chain: CPPCPAPDLLGGPSVFLFPPKPKDTLMISRTPEVTCVVVDVSHEDPEVKFNWYVDGVEVHNAKTKPREEQYNSTYRVVSVLTVLHQDWLDGKEYKCKVSNKALPAPIEKTISKAKGQPREPQVYTLPPSRDELTKNQVSLTCLVKGFYPSDIAVEWESNGQPENNYKTTPPVLDSDGSFFLYSKLTVDKSRWQQGNVFSCSVMHEALHYHYTQKSLSLSPGK
notes: EU numbering
For the molecule B18, the Ratio/Fc-H in experiment [1] stood at 2.2 fold. The Ratio/FWT in experiment [2] was determined as 6.9 fold.

B19: C3A_21 (other)
chain: CPPCPAPELLGGPSVFLFPPKPKDTLMISRTPEVTCVVVDVSHEDPEVKFNWYVDGVEVHNAKTKPREEQYNSTYRVVSVLTVLHQDWLDGKEYKCKVSNKALPVPIEKTISKAKGQPREPQVYTLPPSRDELTKNQVSLTCLVKGFYPSDIAVEWESNGQPENNYKTTPPVLDPDGSFFLYSKLTVDKSRWQQGNVFSCSVMHEALHYHYTQKSLSLSPGK
notes: EU numbering
In the case of B19, in experiment [1], the Ratio/Fc-H worked out at 3 fold. In addition, the Ratio/FWT in experiment [2] stood at 9.8 fold.

B20: C3A_24 (other)
chain: CPPCPAPELLGGPSVFLFPPKPKDTLMISRTPEVTCVVVDVSHEDPEVKFNWYVDGVEVHNAKTKPREEQYNSTYRVVSVLPVLHQDWLNGKEYKCKVSNKALPAPIEKTISKAKGQPREPQVYTLPPSRDELTKNQVSLTCLVKGFYPSDIAVEWESNGQPETNYKTTPPVLDSGGSFFLYSKLTVDKSRWQQGTVFSCSVMHEALHYHYTQKSLSLSPGK
notes: EU numbering
On to B20, for which the Ratio/Fc-H in experiment [1] came out at 2.9 fold. The Ratio/FWT in experiment [2] is 9.2 fold.
